# In patent US20210330742:
# Biological target: CDK4 (UniProt P11802)
# Sequence (P11802 2-303): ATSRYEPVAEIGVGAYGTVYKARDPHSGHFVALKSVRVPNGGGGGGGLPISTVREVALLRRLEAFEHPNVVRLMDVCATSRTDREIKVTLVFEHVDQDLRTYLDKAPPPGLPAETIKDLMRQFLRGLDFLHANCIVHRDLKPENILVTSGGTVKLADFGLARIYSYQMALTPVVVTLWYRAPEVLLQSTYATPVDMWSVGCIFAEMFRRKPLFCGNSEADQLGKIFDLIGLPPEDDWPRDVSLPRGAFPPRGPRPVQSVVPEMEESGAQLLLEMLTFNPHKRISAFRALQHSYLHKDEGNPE
substance,measurement,value
JNK,phosphorylation of CDK4 at Thr-172 (immunoblot),JNK phosphorylated T172 of CDK4 2 hours after serum stimulation
